Experimental data reported in patent publication US20230011234A1 (JOINT STOCK COMPANY BIOCAD, published 2023).

T1: Human CD122/IL-2RB Protein (Fc Tag) (human, UniProt P14784 27-240)
T1 construct: No gamma chain is mentioned; also called human IL2βγ; human IL2βγ-Fc; not shown: Fc tag
T1 sequence (looked up): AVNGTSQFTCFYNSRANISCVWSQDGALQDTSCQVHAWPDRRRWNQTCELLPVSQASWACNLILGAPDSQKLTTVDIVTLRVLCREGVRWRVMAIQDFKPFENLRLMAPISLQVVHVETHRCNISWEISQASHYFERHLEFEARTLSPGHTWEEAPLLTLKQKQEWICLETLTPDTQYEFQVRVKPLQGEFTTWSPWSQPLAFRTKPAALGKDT


Assays:
[1] = target: T2, PD-L1-Fc receptor (human, UniProt Q9NZQ7 19-238, limits assumed); assay: BLI (OctetRed 96), PD-L1-Fc in solution, 1:1 model
T2 construct: also called human PD-L1 receptor; not shown: Fc

[2] = target: PD-1 on Jurkat NFAT-FLuc PD-1 cells (UniProt Q15116 25-288, limits assumed); assay: cell-based or functional assay
[3] = target: T3, PD-1-Fc receptor (human, UniProt Q15116 25-167, limits assumed); assay: BLI (OctetRed 96), PD-1-Fc in solution, 1:1 model
T3 construct: also called human PD-1 receptor; not shown: Fc
Description: (§1) The affinity constants for binding of IL15SA bispecific immunocytokines (hereinafter referred to as anti-PD1-Fab-CK_IL15Ra_Hc_IL15CH1FcknobLALA anti-PD-L1-Fab-CK_IL15Ra_Hc_IL15CH1FcknobLALA) to IL2βγ and human PD-1/PD-L1 receptors were measured using OctetRed 96 according to the ForteBio instructions. AR2G biosensors were pre-rehydrated for an hour in mQ. After the activation of biosensors, the bispecific immunocytokines at a concentration of 25 μg/ml in acetate buffer pH4 were non-specifically (by NH₂ groups) immobilized onto the biosensor. The sensors were then immersed into wells containing Human CD122/IL-2RB Protein (Fc Tag) or PD-1-Fc receptor or PD-L1-Fc receptor (1 and 0.5 μg/ml) in PBS buffer supplemented with 0.1% Tween-20 and 0.1% BSA to associate the bispecific super-agonist and the test receptor. The sensors were then immersed in a buffer solution for a subsequent dissociation step.
(§2) The instrumental data, after subtracting a reference signal, were analyzed using Octet Data Analysis software (Version 8.0) in accordance with the standard procedure and using 1:1 interaction model.

[4] = target: T2, PD-L1-Fc receptor; assay: BLI (OctetRed 96), PD-L1-Fc in solution; Response 0 and KD 0
Description: as §1, §2

[5] = target: T1, Human CD122/IL-2RB Protein (Fc Tag); assay: BLI (OctetRed 96), CD122/IL-2RB-Fc in solution; Response 0 and KD 0
Description: as §1, §2

T2 sequence (Q9NZQ7 19-238 limits assumed): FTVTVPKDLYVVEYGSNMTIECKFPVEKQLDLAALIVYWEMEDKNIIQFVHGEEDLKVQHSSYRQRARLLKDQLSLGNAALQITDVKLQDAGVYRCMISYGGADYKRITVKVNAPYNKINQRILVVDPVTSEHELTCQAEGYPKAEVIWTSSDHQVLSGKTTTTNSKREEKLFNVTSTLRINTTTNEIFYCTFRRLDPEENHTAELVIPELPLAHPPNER
Sequence of PD-1 on Jurkat NFAT-FLuc PD-1 cells (Q15116 25-288 limits assumed): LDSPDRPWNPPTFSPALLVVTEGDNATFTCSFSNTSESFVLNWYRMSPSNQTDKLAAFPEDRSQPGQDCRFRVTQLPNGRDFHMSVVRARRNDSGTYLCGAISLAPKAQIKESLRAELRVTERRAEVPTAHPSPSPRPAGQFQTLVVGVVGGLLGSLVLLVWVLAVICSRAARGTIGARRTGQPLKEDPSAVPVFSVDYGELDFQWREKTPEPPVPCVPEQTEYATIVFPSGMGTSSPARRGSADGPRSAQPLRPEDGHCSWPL
T3 sequence (Q15116 25-167 limits assumed): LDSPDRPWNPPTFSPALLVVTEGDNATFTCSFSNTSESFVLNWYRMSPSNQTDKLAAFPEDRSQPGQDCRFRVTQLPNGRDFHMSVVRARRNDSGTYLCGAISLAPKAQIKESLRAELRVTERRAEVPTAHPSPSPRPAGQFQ

Row | Kd [1] | EC50; NFAT-luciferase luminescence (RLU x 10^-3) in co-culture of Jurkat NFAT-FLuc PD-1 cells and Raji PDL1 cells with aCD3/aTAA1 at 1 ng/ml; relief of PD-1/PDL1 inhibition [2] | Kd [3] | binding result [4] | binding result [5] | Binder
1 | < 0.001 nM |  |  |  |  | BCD-135 (antibody) chain 1: not shown chain 2: QTVVTQEPSLSVSPGGTVTLTCGLSSGTVTAINYPGWYQQTPGQAPRTLIYNTNTRHSGVPDRFSGSISGNKAALTITGAQAEDEADYYCALYMGNGGHMFGGGTKLTVLGQPKAAPSVTLFPPSSEELQANKATLVCLISDFYPGAVTVAWKADSSPVKAGVETTTPSKQSNNKYAASSYLSLTPEQWKSHRSYSCQVTHEGSTVEKTVAPTECS
2 |  | 0.027 µg/mL | 0.186 nM | no binding (tested: 1 and 0.5 µg/ml) | no binding (tested: 1 and 0.5 µg/ml) | prolgolimab (antibody, V domains shown, also called Anti-PD-1 prologolimab; BCD100) VH: QVQLVQSGGGLVQPGGSLRLSCAASGFTFSSYWMYWVRQVPGKGLEWVSAIDTGGGRTYYADSVKGRFAISRVNAKNTMYLQMNSLRAEDTAVYYCARDEGGGTGWGVLKDWPYGLDAWGQGTLVTVSS VL: QPVLTQPLSVSVALGQTARITCGGNNIGSKNVHWYQQKPGQAPVLVIYRDSNRPSGIPERFSGSNSGNTATLTISRAQAGDEADYYCQVWDSSTAVFGTGTKLTVLQ
